# In the PETadex activity labels (doi:10.1016/j.bbalip.2005.11.003):
# B1: unnamed (protein)
# chain: MVLKQRANYLGFLIVFFTAFLVEAVPIKRQSNSTVDSLPPLIPSRTSAPSSSPSTTDPEAPAMSRNGPLPSDVETKYGMALNATSYPDSVVQAMSIDGGIRAATSQEINELTYYTTLSANSYCRTVIPGATWDCIHCDATEDLKIIKTWSTLIYDTNAMVARGDSEKTIYIVFRGSSSIRNWIADLTFVPVSYPPVSGTKVHKGFLDSYGEVQNELVATVLDQFKQYPSYKVAVTGHSLGGATALLCALDLYQREEGLSSSNLFLYTQGQPRVGDPAFANYVVSTGIPYRRTVNERDIVPHLPPAAFGFLHAGEEYWITDNSPETVQVCTSDLETSDCSNSIVPFTSVLDHLSYFGINTGLCT
# B2: unnamed (protein)
# chain: MRSSLVLFFVSAWTALASPIRREVSQDLFNQFNLFAQYSAAAYCGKNNDAPAGTNITCTGNACPEVEKADATFLYSFEDSGVGDVTGFLALDNTNKLIVLSFRGSRSIENWIGNLNFDLKEINDICSGCRGHDGFTSSWRSVADTLRQKVEDAVREHPDYRVVFTGHSLGGALATVAGADLRGNGYDIDVFSYGAPRVGNRAFAEFLTVQTGGTLYRITHTNDIVPRLPPREFGYSHSSPEYWIKSGTLVPVTRNDIVKIEGIDATGGNNQPNIPDIPAHLWYFGLIGTCL
# B3: unnamed (protein)
# chain: AEVCYSHLGCFSDEKPWAGTSQRPIKSLPSDPKKINTRFLLYTNENQNSYQLITATDIATIKASNFNLNRKTRFIIHGFTDSGENSWLSDMCKNMFQVEKVNCICVDWKGGSKAQYSQASQNIRVVGAEVAYLVQVLSTSLNYAPENVHIIGHSLGAHTAGEAGKRLNGLVGRITGLDPAEPYFQDTPEEVRLDPSDAKFVDVIHTDISPILPSLGFGMSQKVGHMDFFPNGGKDMPGCKTGISCNHHRSIEYYHSSILNPEGFLGYPCASYDEFQESGCFPCPAKGCPKMGHFADQYPGKTNAVEQTFFLNTGASDNFTRWRYKVTVTLSGEKDPSGNINVALLGKNGNSAQYQVFKGTLKPDASYTNSIDVELNVGTIQKVTFLWKRSGISVSKPKMGASRITVQSGKDGTKYNFCSSDIVQENVEQTLSPC
# Substrate: p-NP-C4
# Details: pH 7; 25 °C
Protein,Km [mM],kcat [s⁻¹],kcat/Km [M⁻¹ s⁻¹]
B1,2.1,420,200000
B2,2.5,580,232000
B3,1,50,50000

# Substrate: triacetin
# Details: pH 7; 25 °C
Protein,Km [mM],kcat [s⁻¹],kcat/Km [M⁻¹ s⁻¹]
B1,210,10,47.6
B3,120,555,4630

# Substrate: tributyrin
# Details: pH 7; 25 °C
Protein,Km [mM],kcat [s⁻¹],kcat/Km [M⁻¹ s⁻¹]
B1,0.45,1080,2.4e+06
B2,0.5,2250,4.5e+06
B3,0.45,1500,3.33e+06

# Substrate: tripropionin
# Details: pH 7; 25 °C
Protein,Km [mM],kcat [s⁻¹],kcat/Km [M⁻¹ s⁻¹]
B1,18,200,11100
B2,14,225,16100
B3,10.5,750,71400

# Substrate: vinyl acetate
# Details: pH 7; 25 °C
Protein,Km [mM],kcat [s⁻¹],kcat/Km [M⁻¹ s⁻¹]
B1,120,950,7920
B2,280,455,1630
B3,295,70,237

# Substrate: vinyl butyrate
# Details: pH 7; 25 °C
Protein,Km [mM],kcat [s⁻¹],kcat/Km [M⁻¹ s⁻¹]
B1,15,5390,359000
B2,20,2600,130000
B3,20,200,10000

# Substrate: vinyl laurate
# Details: pH 7; 25 °C
Protein,Km [mM],kcat [s⁻¹],kcat/Km [M⁻¹ s⁻¹]
B1,2,5400,2.7e+06
B2,4,12000,3e+06
B3,1.25,125,100000

# Substrate: vinyl propionate
# Details: pH 7; 25 °C
Protein,Km [mM],kcat [s⁻¹],kcat/Km [M⁻¹ s⁻¹]
B1,35,3680,105000
B2,100,1950,19500
B3,50,270,5400
